According to patent publication US20040053837A1 (LUDWIG INSTITUTE FOR CANCER RESEARCH, published 2004):

What was measured:
[1] = molecular target: T1, human PDGF alpha-receptor (human, UniProt P16234 24-1089); experiment: self-displacement standard curve, unlabeled PDGF-BB against 125I-PDGF-BB on PAE-1 cells expressing PDGF alpha-receptor
T1 construct: whole, on cells; also called PDGF receptor alpha; PDGFR-alpha
Experimental: (§1) Next, full length and truncated PDGF-C were tested for their capacity to bind to human PDGF receptors alpha and beta by analyzing their abilities to compete with PDGF-BB for binding to PDGF receptors. The binding experiments were performed on porcine aortic endothelial-1 (PAE-1) cells stably expressing the human PDGF receptors alpha and beta (Eriksson et al., EMBO J, 1992, 11, 543-550). Binding experiments were performed essentially as in Heldin et al. (EMBO J, 1988, 7:1387-1393). Different concentrations of human full-length and truncated PDGF-C, or human PDGF-BB were mixed with 5 ng/ml of ¹²⁵I-PDGF-BB in binding buffer (PBS containing 1 mg/ml of bovine serum albumin). Aliquots were incubated with the receptor expressing PAE-1 cells plated in 24-well culture dishes on ice for 90 minutes. After three washes with binding buffer, cell-bound ¹²⁵I -PDGF-BB was extracted by lysis of cells in 20 mM Tris-HCl, pH 7.5, 10% glycerol, 1% Triton X-100. The amount of cell bound radioactivity was determined in a gamma-counter. A standard curve for the binding of ¹²⁵I-labeled PDGF BB homodimers to PAE-1 cells expressing PDGF alpha-receptor is shown in FIG. 18. An increasing excess of the unlabeled protein added to the incubations competed efficiently with cell association of the radiolabeled tracer.

human PDGF beta-receptor = molecular target: T2, human PDGF beta-receptor (human, UniProt P09619 33-1106); experiment: direct binding of 125I-labeled truncated PDGF-C to PAE-1 cells expressing PDGF beta receptor
T2 construct: whole, on cells; also called PDGF receptor beta; PDGFR-beta
T2 sequence (P09619 33-1106): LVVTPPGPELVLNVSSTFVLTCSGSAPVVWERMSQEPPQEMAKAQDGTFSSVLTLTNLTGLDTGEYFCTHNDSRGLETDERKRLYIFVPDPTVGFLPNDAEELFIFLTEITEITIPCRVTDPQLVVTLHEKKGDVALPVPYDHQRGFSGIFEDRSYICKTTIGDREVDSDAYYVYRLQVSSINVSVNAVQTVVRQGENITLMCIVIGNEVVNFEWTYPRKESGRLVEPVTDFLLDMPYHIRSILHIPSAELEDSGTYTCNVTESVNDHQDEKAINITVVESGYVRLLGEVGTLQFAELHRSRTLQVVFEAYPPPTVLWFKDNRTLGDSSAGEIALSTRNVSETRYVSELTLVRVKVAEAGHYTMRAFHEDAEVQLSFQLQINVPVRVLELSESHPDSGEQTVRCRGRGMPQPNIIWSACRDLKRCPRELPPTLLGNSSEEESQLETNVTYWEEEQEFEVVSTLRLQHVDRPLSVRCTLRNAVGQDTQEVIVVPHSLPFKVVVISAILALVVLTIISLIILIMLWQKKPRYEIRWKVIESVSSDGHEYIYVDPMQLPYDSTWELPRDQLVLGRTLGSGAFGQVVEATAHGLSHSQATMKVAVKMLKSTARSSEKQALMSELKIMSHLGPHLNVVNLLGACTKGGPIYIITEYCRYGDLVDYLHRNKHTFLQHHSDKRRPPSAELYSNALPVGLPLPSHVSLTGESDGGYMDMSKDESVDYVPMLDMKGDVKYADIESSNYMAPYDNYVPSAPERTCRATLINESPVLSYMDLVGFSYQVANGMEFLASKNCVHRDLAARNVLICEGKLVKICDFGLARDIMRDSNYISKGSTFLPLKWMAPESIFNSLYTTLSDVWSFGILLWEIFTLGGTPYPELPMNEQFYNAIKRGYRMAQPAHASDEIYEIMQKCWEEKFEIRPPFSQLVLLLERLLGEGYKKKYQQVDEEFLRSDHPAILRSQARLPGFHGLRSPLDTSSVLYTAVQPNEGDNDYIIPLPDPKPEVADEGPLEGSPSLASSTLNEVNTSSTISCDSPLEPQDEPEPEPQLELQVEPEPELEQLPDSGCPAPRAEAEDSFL
Experimental: To assess the interactions between truncated PDGF-C and the PDGF alpha and beta receptors, truncated PDGF-C was tested for its capacity to bind to porcine aortic endothelial-1 (PAE-1) cells expressing PDGF alpha or beta receptors, respectively (Eriksson et al., EMBO J, 1992 11:543-550). The binding experiments were performed essentially as described in Heldin et al. (EMBO J, 1988 7:1387-1393). Five micrograms of truncated PDGF-C protein in ten microliters of sodium borate buffer was radiolabeled using the Bolton-Hunter reagent (Amersham) to a specific activity of 4×10⁵ cpm/ng. Different concentrations of radiolabeled truncated PDGF-C, with or without added unlabeled protein, in binding buffer (PBS containing 1 mg/ml of bovine serum albumin) was added to the receptor expressing PAE-1 cells plated in 24-well culture dishes on ice for 90 minutes. After three washes with binding buffer, cell-bound ¹²⁵I-labeled PDGF-C was extracted by lysis of cells in 20 mM Tris-HCl, pH 7.5, 10% glycerol, 1% Triton X-100. The amount of cell-bound radioactivity was determined in a gamma-counter. Non-specific binding was estimated by including a 100-fold molar excess of truncated PDGF-C in some experiments. […] The binding was specific as radiolabeled PDGF-C was quantitatively displaced by a 100-fold molar excess of unlabeled protein.

[2] = molecular target: T1, human PDGF alpha-receptor; experiment: competition with 125I-PDGF-BB on PAE-1 cells expressing human PDGF alpha-receptor
Experimental: as §1

VEGFR-2-Ig = molecular target: T3, VEGFR-2-Ig (human, UniProt P35968 20-764); experiment: pull-down of 35S-labelled conditioned medium with receptor-Ig on protein A-Sepharose, SDS-PAGE, phosphorimager
T3 construct: extracellular domain; Transiently expressed in 293 EBNA cells and captured on protein A-Sepharose; also called soluble Ig-fusion protein containing the extracellular domain of human VEGFR-2; not shown: Ig part of the fusion
T3 sequence (P35968 20-764): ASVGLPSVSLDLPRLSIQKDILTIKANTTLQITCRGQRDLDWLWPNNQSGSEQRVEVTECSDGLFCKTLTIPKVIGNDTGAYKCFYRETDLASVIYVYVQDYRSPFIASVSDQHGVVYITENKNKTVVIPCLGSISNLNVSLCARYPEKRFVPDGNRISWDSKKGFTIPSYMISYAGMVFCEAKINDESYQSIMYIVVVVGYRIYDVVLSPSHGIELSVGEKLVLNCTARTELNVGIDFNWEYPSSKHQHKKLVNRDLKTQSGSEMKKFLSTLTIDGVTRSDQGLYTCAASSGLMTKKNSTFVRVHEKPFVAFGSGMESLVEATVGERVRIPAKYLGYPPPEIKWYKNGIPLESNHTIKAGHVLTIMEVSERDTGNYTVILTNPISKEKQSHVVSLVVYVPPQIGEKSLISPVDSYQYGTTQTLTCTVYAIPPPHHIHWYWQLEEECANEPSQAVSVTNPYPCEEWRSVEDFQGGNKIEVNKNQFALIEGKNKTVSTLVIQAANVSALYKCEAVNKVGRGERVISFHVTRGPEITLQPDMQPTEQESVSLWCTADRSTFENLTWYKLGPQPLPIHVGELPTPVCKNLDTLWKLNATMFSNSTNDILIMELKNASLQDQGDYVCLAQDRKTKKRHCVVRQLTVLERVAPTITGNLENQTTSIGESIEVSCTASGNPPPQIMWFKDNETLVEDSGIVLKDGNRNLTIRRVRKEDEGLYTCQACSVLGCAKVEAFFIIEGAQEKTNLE
Experimental: (§2) To assess the interactions between full length and truncated PDGF-C and the VEGF receptors, full length and truncated PDGF-C were tested for their capacity to bind to soluble Ig-fusion proteins containing the extracellular domains of human VEGFR-1, VEGFR-2 and VEGFR-3 (Olofsson et al., Proc. Natl. Acad. Sci. USA, 1998 95:11709-11714). The fusion proteins, designated VEGFR-1-Ig, VEGFR-2-Ig and VEGFR-3-Ig, were transiently expressed in human 293 EBNA cells. All Ig fusion proteins were human VEGFRs. Cells were incubated for 24 hours after transfection, washed with Dulbecco's Modified Eagle Medium (DMEM) containing 0.2% bovine serum albumin and starved for 24 hours. The fusion proteins were then precipitated from the clarified conditioned medium using protein A-Sepharose beads (Pharmacia). The beads were combined with 100 microliters of 10× binding buffer (5% bovine serum albumin, 0.2% Tween 20 and 10 μg/ml heparin) and 900 microliter of conditioned medium from 293 cells that had been transfected with mammalian expression plasmids encoding full length or truncated PDGF-C or control vector, then metabolically labeled with ³⁵S-cysteine and methionine (Promix, Amersham) for 4 to 6 hours. After 2.5 hours, at room temperature, the Sepharose beads were washed 3 times with binding buffer at 4° C., once with phosphate buffered saline and boiled in SDS-PAGE buffer. Labeled proteins that were bound to the Ig-fusion proteins were analyzed by SDS-PAGE under reducing conditions. Radiolabeled proteins were detected using a phosphorimager analyzer.

VEGFR-1-Ig = molecular target: T4, VEGFR-1-Ig (human, UniProt P17948 27-758); experiment: as above
T4 construct: extracellular domain; Transiently expressed in 293 EBNA cells and captured on protein A-Sepharose; The construct is cited from Olofsson et al. 1998; also called soluble Ig-fusion protein containing the extracellular domain of human VEGFR-1; not shown: Ig part of the fusion
T4 sequence (P17948 27-758): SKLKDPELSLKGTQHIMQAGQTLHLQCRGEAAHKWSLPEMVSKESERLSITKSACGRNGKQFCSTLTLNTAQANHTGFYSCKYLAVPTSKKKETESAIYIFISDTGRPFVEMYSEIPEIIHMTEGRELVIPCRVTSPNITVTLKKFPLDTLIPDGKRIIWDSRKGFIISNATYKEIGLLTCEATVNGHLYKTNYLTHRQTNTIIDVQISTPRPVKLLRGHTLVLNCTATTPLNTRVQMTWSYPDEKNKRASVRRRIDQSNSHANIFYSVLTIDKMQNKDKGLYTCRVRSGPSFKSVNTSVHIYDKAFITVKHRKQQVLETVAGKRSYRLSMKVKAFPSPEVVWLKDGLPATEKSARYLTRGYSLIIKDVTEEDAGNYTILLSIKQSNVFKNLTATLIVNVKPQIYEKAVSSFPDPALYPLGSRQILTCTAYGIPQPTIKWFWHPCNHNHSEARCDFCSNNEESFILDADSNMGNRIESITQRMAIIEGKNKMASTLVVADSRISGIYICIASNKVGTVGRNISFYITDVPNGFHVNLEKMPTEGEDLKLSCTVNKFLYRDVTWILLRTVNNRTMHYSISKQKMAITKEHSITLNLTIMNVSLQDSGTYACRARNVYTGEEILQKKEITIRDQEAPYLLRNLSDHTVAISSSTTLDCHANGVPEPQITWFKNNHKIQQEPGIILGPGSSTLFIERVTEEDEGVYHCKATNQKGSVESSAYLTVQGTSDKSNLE
Experimental: as §2

VEGFR-3-Ig = molecular target: T5, VEGFR-3-Ig (human, UniProt P35916 25-775); experiment: as above
T5 construct: extracellular domain; Transiently expressed in 293 EBNA cells and captured on protein A-Sepharose; also called soluble Ig-fusion protein containing the extracellular domain of human VEGFR-3; not shown: Ig part of the fusion
T5 sequence (looked up): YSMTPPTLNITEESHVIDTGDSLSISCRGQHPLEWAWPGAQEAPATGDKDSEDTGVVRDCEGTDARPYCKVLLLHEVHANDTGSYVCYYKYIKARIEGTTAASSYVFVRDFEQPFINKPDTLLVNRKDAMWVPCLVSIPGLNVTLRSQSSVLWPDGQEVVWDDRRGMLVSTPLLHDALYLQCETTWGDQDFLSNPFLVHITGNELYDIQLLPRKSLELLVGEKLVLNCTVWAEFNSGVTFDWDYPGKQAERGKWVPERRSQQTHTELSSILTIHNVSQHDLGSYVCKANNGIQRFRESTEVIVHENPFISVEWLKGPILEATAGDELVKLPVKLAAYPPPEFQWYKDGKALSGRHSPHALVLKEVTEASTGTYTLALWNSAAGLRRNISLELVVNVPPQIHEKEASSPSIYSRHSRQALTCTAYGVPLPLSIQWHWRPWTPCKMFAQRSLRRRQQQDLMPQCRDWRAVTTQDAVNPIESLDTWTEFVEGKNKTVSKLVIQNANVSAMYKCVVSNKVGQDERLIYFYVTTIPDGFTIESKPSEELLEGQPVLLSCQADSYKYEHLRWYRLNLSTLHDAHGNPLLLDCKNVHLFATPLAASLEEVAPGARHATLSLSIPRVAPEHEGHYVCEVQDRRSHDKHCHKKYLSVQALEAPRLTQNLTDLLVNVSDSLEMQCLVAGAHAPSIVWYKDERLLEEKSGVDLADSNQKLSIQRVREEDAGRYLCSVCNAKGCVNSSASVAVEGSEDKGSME
Experimental: as §2

T1 sequence (P16234 24-1089): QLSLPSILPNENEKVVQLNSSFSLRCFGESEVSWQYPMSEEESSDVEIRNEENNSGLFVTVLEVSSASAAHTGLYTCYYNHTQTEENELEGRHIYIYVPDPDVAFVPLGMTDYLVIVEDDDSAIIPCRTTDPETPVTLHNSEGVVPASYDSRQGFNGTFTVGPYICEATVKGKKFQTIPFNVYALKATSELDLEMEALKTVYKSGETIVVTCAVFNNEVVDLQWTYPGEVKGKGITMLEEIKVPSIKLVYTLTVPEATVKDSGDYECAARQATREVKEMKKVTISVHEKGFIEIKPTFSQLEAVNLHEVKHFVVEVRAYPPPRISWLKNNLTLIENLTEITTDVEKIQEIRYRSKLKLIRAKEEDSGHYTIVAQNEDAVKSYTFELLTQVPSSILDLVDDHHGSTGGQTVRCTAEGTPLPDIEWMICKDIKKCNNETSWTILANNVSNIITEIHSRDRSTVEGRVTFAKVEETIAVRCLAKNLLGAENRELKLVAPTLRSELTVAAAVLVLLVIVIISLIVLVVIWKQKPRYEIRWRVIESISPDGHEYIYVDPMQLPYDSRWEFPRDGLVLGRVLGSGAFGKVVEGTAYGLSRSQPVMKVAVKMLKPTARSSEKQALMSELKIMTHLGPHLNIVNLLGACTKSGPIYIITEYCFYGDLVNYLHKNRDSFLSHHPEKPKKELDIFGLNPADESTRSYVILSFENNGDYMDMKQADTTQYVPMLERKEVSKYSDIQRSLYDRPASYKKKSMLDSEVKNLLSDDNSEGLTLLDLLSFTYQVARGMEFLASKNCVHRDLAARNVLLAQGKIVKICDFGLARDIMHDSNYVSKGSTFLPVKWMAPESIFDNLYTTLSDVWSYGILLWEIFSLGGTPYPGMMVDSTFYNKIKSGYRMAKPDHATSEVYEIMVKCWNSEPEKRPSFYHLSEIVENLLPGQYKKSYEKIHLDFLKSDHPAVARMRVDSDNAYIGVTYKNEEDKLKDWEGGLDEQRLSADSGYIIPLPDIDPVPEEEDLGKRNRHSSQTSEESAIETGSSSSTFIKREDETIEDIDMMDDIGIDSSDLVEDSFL

B1: human PDGF-BB homodimer (ligand, UniProt P01127 82-190, looked up)
chain: SLGSLTIAEPAMIAECKTRTEVFEISRRLIDRTNANFLVWPPCVEVQRCSGCCNNRNVQCRPTQVQLRPVQVRKIEIVRKKPIFKKATVTLEDHLACKCETVAAARPVT
modifications: 125I label on the tracer form
notes: also called labeled PDGF-BB
- binding result [1]: binds

B2: truncated human PDGF-CC homodimer, PDGF/VEGF homology domain only (core domain, residues 230-345; recombinant, baculovirus-infected Sf9 cells, C-terminal … (ligand, not shown: small tags and cut ends)
chain: GRKSRVVDLNLLTEEVRLYSCTPRNFSVSIREELKRTDTIFWPGCLLVKRCGGNCACCLHNCNECQCVPSKVTKKYHEVLQLRPKTGVRGLHKSLTDVALEHHEECDCVCRGSTGG
notes: Secreted disulfide-bonded dimer (36 kDa non-reduced, 24 kDa monomer); also called cPDGF-CC; truncated PDGF-C
- binding result (human PDGF beta-receptor): no binding
- binding result [2]: binds

B3: truncated human PDGF-C expressed in 293 cells from a mammalian expression plasmid (35S-labelled conditioned medium) (ligand)
chain: GRKSRVVDLNLLTEEVRLYSCTPRNFSVSIREELKRTDTIFWPGCLLVKRCGGNCACCLHNCNECQCVPSKVTKKYHEVLQLRPKTGVRGLHKSLTDVALEHHEECDCVCRGSTGG
notes: also called truncated PDGF-C; radiolabeled PDGF-C
- binding result (VEGFR-2-Ig): no binding
- binding result (VEGFR-1-Ig): no binding
- binding result (VEGFR-3-Ig): no binding
